Assay: soluble on expression in E. coli; label from the status in PepcDB or PDB records

| Sequence | soluble on expression in E. coli |
| --- | --- |
| MSREQAILVGCQLAGVDDERFRYSMEELASLVATANGEVVAEVTQKREAPHPATYIGKGKTEELAAIVKQLEPDVVIFNSELSPSQARNLTKMLGEVKVIDRTQLILDIFARRARSKEGKLQVELAQLEYMLPRLSGQGEALSRLGGGIGTRGPGETKLETDRRHIRRRIDDIKAELVRIAEHRGRYRERRQKNQAFQVALVGYTNAGKSTIFNRLTAADSLEENLLFATLDPLTRKCVLPCGYTVLVTDTVGFIQDLPTTLVAAFRSTLEEVTEADLLLHVVDSSHPDYVAHERTVSRLLAELGASSIPMVTVYNKSDQKASEFIPTTTASIMISALSAADIDRLRYFLEEAVKQQMARYDVSIPSGEGKLLARLKSDTILHEWHYNEQGGTYDCQGYVLPTHPLYGELQSFQR | soluble |
| SAVFADLDLRAGSDLKALRGLVETAAHLGYSVVAINHIVDFKEKKQEIEKPVAVSELFTTLPIVQGKSRPIKILTRLTIIVSDPSHCNVLRATSSRARLYDVVAVFPKTEKLFHIACTHLDVDLVCITVTEKLPFYFKRPPINVAIDRGLAFELVYSPAIKDSTMRRYTISSALNLMQICKGKNVIISSAAERPLEIRGPYDVANLGLLFGLSESDAKAAVSTNCRAALLHGETRKTAFGIISTVKKPRPSEGDEDCLPASKKAKCEG | soluble |
| GSARQQEIDMKRQQRFFRIPFIRPADQYKDPQNKKKGWWYAHFDGPWIARQMELHPDKPPILLVAGKDDMEMCELNLEETGLTRKRGAEILPRQFEEIWERCGGIQYLQSAIESRQARPTYATAMLQNLLKGSSGGSLVPR | soluble |
| MLTIAMPKGRIFEEAVELLRRGDYALPPEFTESRKLVIDVPEENMRFILAKPMDVVTYVEHGVADLGIAGKDVLMEEERDVYELLDLQISRCHLAVAGLPGAKMNEIAPRVATKYPNIASTYFREQGEQVEIIRLNGSIELAPLIGLADRIVDIVSTGRTLRENGLVELERIAEVTSRLIVNPASYRLNGGDIERLVDRLAAVIPQP | not soluble |
| MKFLQFALLFFIICITTTDASKKTQRVLKKVGKRFSLSEFGVVQRLDYMWRTAETVEAARNHSAELVARLLLSQSSADNLKFQESADILYSLMDNNFEGKICGGDETLNFYQMSDYWKRQRKTYRRNEKENVTWRAYPIEDNAYNKFMVRFNSKSTWGYSATMIYVVHMRLLGEKKYSNYTLTKIEEVGACTEYGGVSLENTNLYELDPERLETRDKLLKHLQELFYTEQKVSEIPFDWIYSSASEKELKIEVCHGTELKKMAKKDFIKWWEWFQMMCRPVKGENEHTLVQITGGVYDRLVFRVTMLVHVGTEDIHPTEEFSFKLQFKYDVHGDKEWLINKFEVMCPTIAVPEADLMKKHALVYREIIGSRLQLMVNNPELWYNFAEAIVALTSPTYEVENCAGKGEEMEKGTDMYQLKHTFWKLNKDTHGRMEGYTLGKKNDISETGEKMWARIRIIWTPGNDKLVYDSRWTFYLEWNSDLQAFTIYKMILQCPTVARIGEIKYYSSLNKPTTNTTSQ | not soluble |
| MEKYPEIQQMRSKMREGDDTNEFKIRPLKGLSHPSGNLQMQRFQEDRRERIHSIRKRENQDGRLDLIGVVGEITVVIDDVVYEEEKLRKVVFTMKG | not soluble |
| MSLYKVYGDYRSGNCYKIKLMLNLLGLPYEWQAVDILGGDTQTEAFLAKNPNGKIPVLELEDGTCLWESNAILNFLADGSQFLPSEPRLRTQVLQWQFFEQYSHEPYIAVARFIQLYEGLPEERREEYLKLHKRGYKALDVMEKQLSRTPYLVGEHYSIADIALYAYTHVADEGGFDLSRYPGIQAWMQRVQSHPRHVPMLDEGHHHHHH | soluble |
| MGSDKIHHHHHHMTRQCHPLATVVDACAPLRFAPLPDLRLRSFTRSGDQGDAGQWCRADLLAAKNAFAPVYDGFVAATRPGHRLPAATHFLRAVFREPIFLVAAGLYLTGRAPLLDASHLWFPVRADRTLGTPMLTELKVAVTADDRFAGHPETVTFPGSDDVVRAAAHAMVAAFTPVIDALSAHTRVGKRTLWGWVLDTAHFYMLNPARFLGRDAQAAWALANRLADALLEAGAVTRARPRLFPFCDNHPRGTWAVRGTCCFDYKGDPEHGYCTTCPHKCDNERRNELQEWLRNPALAP | not soluble |
| MARKNAVKDNLEQIQHQSYSELQELLSEANSMLADSAAFAGDKADSARARIGALLEKANDALGKGGSAVAERSRHAVDATESYIGANPWQTVAITTAVGLLAGFLLGRRS | not soluble |

From the DeepSol protein solubility set
